Target: Rac1 (Homo sapiens, UniProt P63000)
Experiment: microscale thermophoresis

Kd: ~40 nM
B1: p67phox 1-212 (protein)
chain: MSLVEAISLWNEGVLAADKKDWKGALDAFSAVQDPHSRICFNIGCMYTILKNMTEAEKAFTRSINRDKHLAVAYFQRGMLYYQTEKYDLAIKDLKEALIQLRGNQLIDYKILGLQFKLFACEVLYNIAFMYAKKEEWKKAEEQLALATSMKSEPRHSKIDKAMECVWKQKLYEPVVIPVGKLFRPNERQVAQLAKKDYLGKATVVASVVDQD

— publication PMC3292765 (2012)
